Reference: patent US20120004117A1 (FORERUNNER PHARMA RESEARCH, published 2012)

T1: human TM4SF20 (Transmembrane 4 L6 family member 20), endogenous (human, UniProt Q53R12 1-229)
T1 construct: Untagged native protein as on A549 lung adenocarcinoma cells and in clinical stomach cancer sections; also called TM4SF20 protein
T1 sequence: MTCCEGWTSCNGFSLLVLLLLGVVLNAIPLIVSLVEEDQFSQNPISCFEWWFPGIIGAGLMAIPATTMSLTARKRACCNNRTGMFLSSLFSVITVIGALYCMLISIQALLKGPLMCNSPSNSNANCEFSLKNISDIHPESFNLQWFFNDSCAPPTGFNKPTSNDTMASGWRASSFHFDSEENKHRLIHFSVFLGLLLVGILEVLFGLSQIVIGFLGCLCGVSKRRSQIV

T2: GST_TM4SF20_C2 (human)
T2 construct: Tested as whole E. coli lysate, denatured, in western blotting; not shown: glutathione S-transferase (GST) tag encoded by the vector pGEX-6P-1 (GE Healthcare), upstream of the BamHI site
T2 chain: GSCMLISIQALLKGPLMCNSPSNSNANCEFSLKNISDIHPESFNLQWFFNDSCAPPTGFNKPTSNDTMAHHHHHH

T3: GST_TM4SF20_C3 (human)
T3 construct: Tested as whole E. coli lysate, denatured, in western blotting; not shown: glutathione S-transferase (GST) tag encoded by the vector pGEX-6P-1 (GE Healthcare), upstream of the BamHI site
T3 chain: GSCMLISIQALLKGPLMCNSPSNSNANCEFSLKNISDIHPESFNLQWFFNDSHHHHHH

T4: N-terminally HA-tagged mouse TM4SF20 expressed on CHO DG44 cells (mTM4SF20_CHO) (mouse, UniProt Q9CQY8 2-226)
T4 construct: also called mTM4SF20_ntHA; pCOS2_mTM4SF20_ntHA product
T4 chain: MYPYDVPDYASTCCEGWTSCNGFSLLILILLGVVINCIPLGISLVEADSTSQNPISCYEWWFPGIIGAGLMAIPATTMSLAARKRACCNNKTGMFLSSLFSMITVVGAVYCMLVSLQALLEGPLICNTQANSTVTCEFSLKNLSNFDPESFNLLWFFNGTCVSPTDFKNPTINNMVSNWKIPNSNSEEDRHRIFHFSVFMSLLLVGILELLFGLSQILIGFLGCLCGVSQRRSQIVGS

T5: C-terminally HA-tagged TM4SF20 expressed on CHO DG44 cells (TM4SF20_CHO) (human, UniProt Q53R12 1-229)
T5 construct: also called TM4SF20_ctHA; pCOS2_TM4SF20_ctHA product
T5 sequence: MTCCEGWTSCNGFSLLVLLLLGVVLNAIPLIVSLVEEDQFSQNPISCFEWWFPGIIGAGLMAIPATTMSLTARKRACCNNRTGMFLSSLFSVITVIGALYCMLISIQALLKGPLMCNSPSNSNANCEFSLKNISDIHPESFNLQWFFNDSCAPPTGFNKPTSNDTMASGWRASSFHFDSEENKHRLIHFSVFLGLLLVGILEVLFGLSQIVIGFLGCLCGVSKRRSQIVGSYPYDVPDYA

T6: N-terminally HA-tagged chimeric TM4SF20 version 1 expressed on CHO DG44 cells (chimeric TM4SF20 ver.1_CHO) (human TM4SF20 with the first loop …, UniProt Q53R12 2-229)
T6 construct: also called chimeric TM4SF20 ver.1_ntHA
T6 chain: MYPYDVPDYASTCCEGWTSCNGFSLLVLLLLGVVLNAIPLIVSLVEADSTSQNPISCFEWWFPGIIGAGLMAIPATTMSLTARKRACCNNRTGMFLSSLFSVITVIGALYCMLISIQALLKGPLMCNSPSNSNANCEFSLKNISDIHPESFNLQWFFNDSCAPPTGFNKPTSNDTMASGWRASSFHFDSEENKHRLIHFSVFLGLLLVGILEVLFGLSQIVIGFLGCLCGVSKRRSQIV

T7: N-terminally HA-tagged chimeric TM4SF20 version 2 expressed on CHO DG44 cells (chimeric TM4SF20 ver.2_CHO) (human TM4SF20 with the second loop …)
T7 construct: also called chimeric TM4SF20 ver.2_ntHA
T7 chain: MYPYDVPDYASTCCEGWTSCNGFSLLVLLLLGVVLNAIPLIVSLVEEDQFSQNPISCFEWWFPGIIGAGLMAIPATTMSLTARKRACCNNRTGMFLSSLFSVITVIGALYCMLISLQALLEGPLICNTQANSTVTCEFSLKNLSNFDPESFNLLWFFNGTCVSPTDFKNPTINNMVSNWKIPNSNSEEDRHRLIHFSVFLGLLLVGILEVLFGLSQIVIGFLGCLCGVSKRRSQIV

T8: N-terminally HA-tagged TM4SF20 expressed on Ba/F3 cells (TM4SF20_Ba/F3) (human, UniProt Q53R12 2-229)
T8 construct: Four-transmembrane protein on the cell membrane; also called TM4SF20_ntHA; pMCDN2_TM4SF20_ntHA product
T8 sequence: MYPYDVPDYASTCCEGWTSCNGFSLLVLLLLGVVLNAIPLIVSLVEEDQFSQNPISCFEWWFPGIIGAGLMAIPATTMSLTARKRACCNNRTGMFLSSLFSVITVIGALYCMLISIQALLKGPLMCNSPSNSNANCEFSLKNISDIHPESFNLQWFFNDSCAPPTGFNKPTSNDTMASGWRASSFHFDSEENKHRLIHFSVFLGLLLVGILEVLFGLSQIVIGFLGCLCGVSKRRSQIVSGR

B1: anti-TM4SF20 antibody B11 (antibody, mouse IgG1, V domains shown)
VH: EVQLQQSGPELVKPGASVKMSCKASGYRFTNYVMHWVKQKPGQGLEWIGYINPYNAGTKYNEKFKGKATLTSDKSSSTAYMELSSLTSEDSAVYYCARGAGWSLRFADWGQGTLVTVSA
VL: DILMTQSPSSMSVSLGDTVSITCHASQGISSNIGWLQQKPGKSFKGLIYLATNLEDGVPSRFSGSGSGADYSLTITSLESEDFAVYYCVQYSQFPRTFGGGTKLEIK
notes: also called clone B11
B2: anti-TM4SF20 antibody B12 (antibody, mouse IgG1, V domains shown)
VH: QVQLKESGPDLVQPSQTLSLTCTVSGFSLTNYGVHWVRQPPGKGLEWVGTMGWDDKKYYNSALKSRLSISRDTSKNQVFLKLSSLQTEDTAMYYCTRNVNFDYWGQGTTLTVSS
VL: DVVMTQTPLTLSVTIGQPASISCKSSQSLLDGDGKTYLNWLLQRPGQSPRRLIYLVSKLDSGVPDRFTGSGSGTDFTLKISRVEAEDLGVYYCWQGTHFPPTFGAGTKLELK
notes: also called clone B12
B3: anti-TM4SF20 antibody C7 (antibody, mouse IgG1, V domains shown)
VH: QVQLKESGPDLVQPSQTLSLTCTVSGFSLSSYGVHWVRQPPGKGLEWVGTMGWDDKKYYNSALNSRLSLSRDTSKNQVFLKLSSLQTEDTAMYYCTRDYYSDGSFAYWGQGTLVTVSA
VL: DVLMTQTPLSLPVSLGDQASISCKSSQSIVHSDGNTYLQWYLQKPGQSPKLLIYKVSNRFSGVPDRFSGSGSGTDFTLKISRVEAEDLGIYYCFQGSHVPPTFGTGTKLEIK
notes: also called clone C7
B4: anti-TM4SF20 antibody C9 (antibody, mouse IgG1, V domains shown)
VH: B3 VH
VL: B3 VL
notes: also called clone C9
B5: anti-TM4SF20 antibody B8 (antibody, mouse IgG2b, V domains shown)
VH: RVQLKESGPDLVQPSQTLSLTCTVSGFSLTNYGVHWIRQPPGKGLEWVGTVGWDDKKYYNSVLKSRLSINRDTSKNQVFLKLSSLQTEDTAMYYCTPYYDGSPYVMDYWGQGTSVTVSS
VL: DIVMSQSPSSLAVSAGEKVTMTCKSSQSLFDSGTRKNYLAWYQQKPGQSPKLLIYWASTRESGVPDRFTGSGSGTDFTLTISSVQAEDLAVYYCKQSYYLLTFGAGTKLELK
notes: also called clone B8
B6: anti-TM4SF20 antibody B15 (antibody, mouse IgG2a, V domains shown)
VH: B5 VH
VL: B5 VL
notes: also called clone B15

The binders below were run against T1, human TM4SF20 (Transmembrane 4 L6 …) (assay: flow cytometry, purified antibody at 10 µg/mL on A549 cells).
Experimental: (§1) Next, 5×10⁴ cells suspended in FACS buffer were dispensed to a U-bottom 96-well plate. The anti-TM4SF20 antibody (hybridoma culture supernatant) or the HAT medium as a negative control was added thereto at a concentration of 10 μg/mL. After reaction on ice for 1 hour, the cells were washed with FACS buffer. Next, an FITC-labeled anti-mouse antibody (Goat F(ab′)₂ Fragment Anti-mouse IgG (H+L)-FITC, Beckman Coulter, Inc.) was added thereto as a secondary antibody and reacted on ice for 1 hour. The cells were washed with FACS buffer, then suspended in FACS buffer supplemented with 10 μg/mL propidium iodide (PI, Sigma-Aldrich Corp.), and assayed using a flow cytometer. The assay data was analyzed as to PI-negative cell populations using CELLQuest software. As a result, all the clones bound to TM4SF20_CHO but to neither […] nor DG44 cells (FIG. 4).
Each anti-TM4SF20 antibody prepared in Example 2 was used to evaluate TM4SF20 expression on the cell membrane of a human cancer cell line by flow cytometry. A primary antibody used was the anti-TM4SF20 antibody (purified antibody) or a negative control antibody (mIgG2a, BD Biosciences Pharmingen). […] The flow cytometry was conducted in the same way as in Example 3 except for the primary antibody used at a concentration of 10 μg/mL. As a result, the expression of TM4SF20 was confirmed on the cell membrane of the A549 cells (FIG. 9)

binding result | Binder
binds | B1
binds | B2

Biological target: T2, GST_TM4SF20_C2
Experiment: western blotting of E. coli whole cell lysate, purified antibody
Experimental: (§2) Each construct was expressed using BL21 (DE3) Competent Cells (Takara Bio Inc.). The whole cell lysate was electrophoresed by SDS-PAGE and then transferred to a PVDF membrane (Immobilon-P, Millipore Corp.) for western blotting. The construct was detected using the anti-TM4SF20 antibody (purified antibody) at a concentration of 5 μg/mL, a 3000 fold-diluted secondary antibody (HRP-anti mIgG, GE Healthcare Bio-Sciences Corp.), and ECL Western Blotting Detection Reagents (GE Healthcare Bio-Sciences Corp). The expression of each construct was confirmed using an anti-GST antibody (GE Healthcare Bio-Sciences Corp.) and an anti-His antibody (Santa Cruz Biotechnology, Inc.). Secondary antibodies used were a HRP-labeled anti-goat antibody (Invitrogen Corp.) and a HRP-labeled anti-rabbit antibody (GE Healthcare Bio-Sciences Corp.), respectively.

binding result | Binder
no binding (tested: 5 µg/mL) | B1
no binding (tested: 5 µg/mL) | B3
no binding (tested: 5 µg/mL) | B4
no binding (tested: 5 µg/mL) | B2
no binding (tested: 5 µg/mL) | B5
no binding (tested: 5 µg/mL) | B6

Biological target: T3, GST_TM4SF20_C3
Experiment: as above
Experimental: as §2

binding result | Binder
no binding (tested: 5 µg/mL) | B1
no binding (tested: 5 µg/mL) | B3
no binding (tested: 5 µg/mL) | B4
no binding (tested: 5 µg/mL) | B2
no binding (tested: 5 µg/mL) | B5
no binding (tested: 5 µg/mL) | B6

Biological target: T4, N-terminally HA-tagged mouse TM4SF20 …
Experiment: flow cytometry, hybridoma culture supernatant on mTM4SF20_CHO cells
Experimental: as §1

binding result | Binder
no binding (tested: 10 µg/mL) | B1
no binding (tested: 10 µg/mL) | B3
no binding (tested: 10 µg/mL) | B4
no binding (tested: 10 µg/mL) | B2
no binding (tested: 10 µg/mL) | B5
no binding (tested: 10 µg/mL) | B6

The binders below were run against T5, C-terminally HA-tagged TM4SF20 … (assay: flow cytometry, hybridoma culture supernatant at 10 µg/mL on TM4SF20_CHO cells).
Experimental: as §1

binding result | Binder
binds | B1
binds | B2

Biological target: T6, N-terminally HA-tagged chimeric TM4SF20 …
Experiment: flow cytometry, hybridoma culture supernatant on chimeric TM4SF20 ver.1_CHO cells
Experimental: as §1
(§3) Next, the binding of the anti-TM4SF20 antibody (hybridoma culture supernatant) was confirmed by flow cytometry in the same way as in Example 3. As a result, all the clones bound to chimeric TM4SF20 ver.1_CHO but to neither chimeric TM4SF20 ver.2_CHO nor DG44 cells (FIG. 6).

binding result | Binder
binds | B1
binds | B2

Biological target: T7, N-terminally HA-tagged chimeric TM4SF20 …
Experiment: flow cytometry, hybridoma culture supernatant on chimeric TM4SF20 ver.2_CHO cells
Experimental: as §1, §3

binding result | Binder
no binding | B1
no binding | B3
no binding | B4
no binding | B2
no binding | B5
no binding | B6

Each binder was assayed against T8, N-terminally HA-tagged TM4SF20 … (assay: flow cytometry screening of hybridoma supernatants on TM4SF20_Ba/F3 against parental Ba/F3 cells).

binding result | Binder
binds | B1
binds | B2
